According to the supplement of paper PMC9112550, “Optimization of the antimicrobial peptide Bac7 by deep mutational scanning” (BMC Biology, 2022):

Test system: Escherichia coli TOP10
Assay: shrunken log2 fold change of peptide-encoding DNA abundance (4.5 h post-induction vs induction); higher = less antimicrobial activity (less host growth inhibition)
Conditions: time post-induction: 4.5 h; library: site-saturation at positions 5, 18, 19, 20
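Note: peptides expressed intracellularly from a pBAD plasmid library in pooled LB shake-flask culture, induced with 0.3% L-arabinose, DNA abundance read by NGS, three biological replicates, DESeq2 with apeglm shrinkage.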

RRIRPRPPRLPRPRPRPRVEPRP and RRIRPRPPRLPRPRPRPRVWPRP are within 0.2 log units of each other in “shrunken log2 fold change” value: 0.625 for the first, 0.482 for the second.

Compared with RRIRPRPPRLPRPRPRPRWEPRP, RRIRPRPPRLPRPRPRPRYLPRP is lower in “shrunken log2 fold change” value: 0.444 for the first, -0.402 for the second.

Going from RRIRPRPPRLPRPRPRPSAQPRP to RRIRPRPPRLPRPRPRPSECPRP, the “shrunken log2 fold change” value falls from -0.0511 to -0.651.

First: RRIRPRPPRLPRPRPRPSEEPRP
Second: RRIRPRPPRLPRPRPRPSEIPRP
The “shrunken log2 fold change” value of the first is higher: 0.591 for the first, -0.261 for the second.

First: RRIRPRPPRLPRPRPRPSFSPRP
Second: RRIRPRPPRLPRPRPRPSGKPRP
The “shrunken log2 fold change” value of the first is lower: -0.578 for the first, -0.247 for the second.

Going from RRIRPRPPRLPRPRPRPSHWPRP to RRIRPRPPRLPRPRPRPSKDPRP, the “shrunken log2 fold change” value falls from 0.959 to -0.451.

First: RRIRPRPPRLPRPRPRPSQCPRP
Second: RRIRPRPPRLPRPRPRPSQMPRP
The “shrunken log2 fold change” value of the first is lower: -0.985 for the first, 0.185 for the second.

RRIRPRPPRLPRPRPRPSRNPRP and RRIRPRPPRLPRPRPRPSRSPRP are within 0.2 log units of each other in “shrunken log2 fold change” value: 0.0326 for the first, 0.0328 for the second.

Compared with RRIRPRPPRLPRPRPRPSTQPRP, RRIRPRPPRLPRPRPRPSWDPRP is higher in “shrunken log2 fold change” value: -0.355 for the first, -0.0474 for the second.

Compared with RRIRPRPPRLPRPRPRPSWQPRP, RRIRPRPPRLPRPRPRPSYKPRP is lower in “shrunken log2 fold change” value: -0.0441 for the first, -0.564 for the second.

RRIRPRPPRLPRPRPRPTADPRP and RRIRPRPPRLPRPRPRPTCAPRP are within 0.2 log units of each other in “shrunken log2 fold change” value: 0.407 for the first, 0.268 for the second.

Going from RRIRPRPPRLPRPRPRPTCCPRP to RRIRPRPPRLPRPRPRPTEEPRP, the “shrunken log2 fold change” value rises from -0.0529 to 0.551.

RRIRPRPPRLPRPRPRPTESPRP and RRIRPRPPRLPRPRPRPTFLPRP are within 0.2 log units of each other in “shrunken log2 fold change” value: -0.041 for the first, -0.0646 for the second.

Compared with RRIRPRPPRLPRPRPRPTGYPRP, RRIRPRPPRLPRPRPRPTHCPRP is higher in “shrunken log2 fold change” value: -0.151 for the first, 0.1 for the second.

RRIRPRPPRLPRPRPRPTIWPRP and RRIRPRPPRLPRPRPRPTKQPRP are within 0.2 log units of each other in “shrunken log2 fold change” value: 0.349 for the first, 0.169 for the second.

RRIRPRPPRLPRPRPRPTLAPRP and RRIRPRPPRLPRPRPRPTLMPRP are within 0.2 log units of each other in “shrunken log2 fold change” value: 0.332 for the first, 0.227 for the second.

RRIRPRPPRLPRPRPRPTMAPRP and RRIRPRPPRLPRPRPRPTPNPRP are within 0.2 log units of each other in “shrunken log2 fold change” value: 0.502 for the first, 0.579 for the second.

Compared with RRIRPRPPRLPRPRPRPTQDPRP, RRIRPRPPRLPRPRPRPTQKPRP is lower in “shrunken log2 fold change” value: 0.833 for the first, 0.0334 for the second.

Compared with RRIRPRPPRLPRPRPRPTQQPRP, RRIRPRPPRLPRPRPRPTQRPRP is lower in “shrunken log2 fold change” value: 0.827 for the first, 0.369 for the second.

Going from RRIRPRPPRLPRPRPRPTRRPRP to RRIRPRPPRLPRPRPRPTTCPRP, the “shrunken log2 fold change” value falls from 0.591 to 0.262.

Going from RRIRPRPPRLPRPRPRPTTGPRP to RRIRPRPPRLPRPRPRPTWEPRP, the “shrunken log2 fold change” value rises from 0.12 to 0.659.

First: RRIRPRPPRLPRPRPRPTWRPRP
Second: RRIRPRPPRLPRPRPRPTYQPRP
The “shrunken log2 fold change” value of the first is higher: 0.639 for the first, -0.0514 for the second.

First: RRIRPRPPRLPRPRPRPVADPRP
Second: RRIRPRPPRLPRPRPRPVAHPRP
The “shrunken log2 fold change” value of the first is higher: 0.295 for the first, 0.0324 for the second.

Going from RRIRPRPPRLPRPRPRPVATPRP to RRIRPRPPRLPRPRPRPVAVPRP, the “shrunken log2 fold change” value falls from 0.524 to 0.143.

RRIRPRPPRLPRPRPRPVCKPRP and RRIRPRPPRLPRPRPRPVEKPRP are within 0.2 log units of each other in “shrunken log2 fold change” value: 0.0717 for the first, 0.00127 for the second.

RRIRPRPPRLPRPRPRPVELPRP and RRIRPRPPRLPRPRPRPVETPRP are within 0.2 log units of each other in “shrunken log2 fold change” value: -0.0271 for the first, -0.158 for the second.

Compared with RRIRPRPPRLPRPRPRPVGQPRP, RRIRPRPPRLPRPRPRPVLKPRP is lower in “shrunken log2 fold change” value: 0.102 for the first, -0.267 for the second.

RRIRPRPPRLPRPRPRPVLVPRP and RRIRPRPPRLPRPRPRPVNGPRP are within 0.2 log units of each other in “shrunken log2 fold change” value: 0.0376 for the first, 0.0391 for the second.

First: RRIRPRPPRLPRPRPRPVNMPRP
Second: RRIRPRPPRLPRPRPRPVPAPRP
The “shrunken log2 fold change” value of the first is lower: 0.0158 for the first, 0.361 for the second.

Compared with RRIRPRPPRLPRPRPRPVPGPRP, RRIRPRPPRLPRPRPRPVPWPRP is higher in “shrunken log2 fold change” value: 0.202 for the first, 0.548 for the second.

Compared with RRIRPRPPRLPRPRPRPVQLPRP, RRIRPRPPRLPRPRPRPVRNPRP is higher in “shrunken log2 fold change” value: -0.135 for the first, 0.22 for the second.

Going from RRIRPRPPRLPRPRPRPVSEPRP to RRIRPRPPRLPRPRPRPVSIPRP, the “shrunken log2 fold change” value falls from -0.0288 to -0.271.

RRIRPRPPRLPRPRPRPVTNPRP and RRIRPRPPRLPRPRPRPVVVPRP are within 0.2 log units of each other in “shrunken log2 fold change” value: -0.299 for the first, -0.0997 for the second.

RRIRPRPPRLPRPRPRPVWFPRP and RRIRPRPPRLPRPRPRPVWQPRP are within 0.2 log units of each other in “shrunken log2 fold change” value: 0.0968 for the first, 0.23 for the second.

Compared with RRIRPRPPRLPRPRPRPVWRPRP, RRIRPRPPRLPRPRPRPVYIPRP is lower in “shrunken log2 fold change” value: 0.516 for the first, -0.684 for the second.

Compared with RRIRPRPPRLPRPRPRPWAAPRP, RRIRPRPPRLPRPRPRPWDYPRP is lower in “shrunken log2 fold change” value: 0.126 for the first, -0.19 for the second.

First: RRIRPRPPRLPRPRPRPWEKPRP
Second: RRIRPRPPRLPRPRPRPWGWPRP
The “shrunken log2 fold change” value of the first is lower: -0.106 for the first, 0.149 for the second.

RRIRPRPPRLPRPRPRPWHHPRP was tested, and the “shrunken log2 fold change” value was -0.209.
